Molecular target: T1, Bcl-2 protein having His tag on the C terminal side (UniProt P10415 1-211, limits assumed)
T1 construct: Immobilised through its His tag on a Ni-loaded SPR substrate; not shown: C-terminal His tag
Experiment: SPR, His-tagged Bcl-2 immobilised on Ni substrate, peptide in solution
Protocol: Next, a crosslinked peptide having the amino acid sequence as shown in the above table was synthesized by using a Fmoc solid-phase method and its binding ability was evaluated by calculating a dissociation constant (KD) in accordance with an evaluation method using SPR (Surface Plasmon Resonance).
Described specifically, first, a solution containing NiCl₂ was applied on a substrate to which Ni could be bound and then Bcl-2 protein having His tag on the C terminal side thereof was applied to immobilize the protein on the substrate. Then, a solution containing a solid-phase synthesized peptide was added successively while appropriately changing the concentration. During addition, a change in refractive index depending on the weight on the substrate was read and bond strength was evaluated based on the binding rate and dissociation rate of the peptide calculated.

T1 sequence (P10415 1-211 limits assumed): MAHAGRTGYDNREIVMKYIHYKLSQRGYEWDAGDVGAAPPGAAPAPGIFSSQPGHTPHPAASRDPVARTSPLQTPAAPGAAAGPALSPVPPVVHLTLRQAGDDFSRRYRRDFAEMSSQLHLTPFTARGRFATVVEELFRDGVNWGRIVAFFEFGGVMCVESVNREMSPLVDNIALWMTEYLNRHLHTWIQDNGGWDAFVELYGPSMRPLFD

Ac-FFNRHNNAYYTAGYAALGRLYRLL-NH2 [A-4A]
Kd: ~14 nM

B1: A-1A (peptide)
peptide: Ac-FPHATIAARADSYDSYVRLAATFL-NH2
notes: by the library design Ala stands where the special amino acid and Cys would be
Kd: 15 nM

Ac-FPHATIAARADSYDSYVRLVATFR-NH2 [A-2A]
Kd: 3.6 nM

Ac-FIIARFSALADSYDASRHIF-NH2 [A-5A]
Kd: 0.58 nM

From US20130316910A1 (UNIVERSITY OF TOKYO, published 2013)
